{"source": "patent US20020160516A1", "about": "“Episomal expression vector for human gene therapy and expression system for production of proteins” (priority 1993, published 2002)", "molecules": {"B1": {"name": "SV-T: wild-type SV40 large T antigen (protein, UniProt P03070 1-708, looked up)", "Large T antigen": "MDKVLNREESLQLMDLLGLERSAWGNIPLMRKAYLKKCKEFHPDKGGDEEKMKKMNTLYKKMEDGVKYAHQPDFGGFWDATEIPTYGTDEWEQWWNAFNEENLFCSEEMPSSDDEATADSQHSTPPKKKRKVEDPKDFPSELLSFLSHAVFSNRTLACFAIYTTKEKAALLYKKIMEKYSVTFISRHNSYNHNILFFLTPHRHRVSAINNYAQKLCTFSFLICKGVNKEYLMYSALTRDPFSVIEESLPGGLKEHDFNPEEAEETKQVSWKLVTEYAMETKCDDVLLLLGMYLEFQYSFEMCLKCIKKEQPSHYKYHEKHYANAAIFADSKNQKTICQQAVDTVLAKKRVDSLQLTREQMLTNRFNDLLDRMDIMFGSTGSADIEEWMAGVAWLHCLLPKMDSVVYDFLKCMVYNIPKKRYWLFKGPIDSGKTTLAAALLELCGGKALNVNLPLDRLNFELGVAIDQFLVVFEDVKGTGGESRDLPSGQGINNLDNLRDYLDGSVKVNLEKKHLNKRTQIFPPGIVTMNEYSVPKTLQARFVKQIDFRPKDYLKHCLERSEFLLEKRIIQSGIALLLMLIWYRPVAEFAQSIQSRIVEWKERLDKEFSLSVYQKMKFNVAMGIGVLDWLRNSDDDDEDSQENADKNEDGGEKNMEDSGHETGIDSQSQGSFQAPQSSQSVHDHNQPYHICRGFTCFKKPPTPPPEPET"}}, "key": {"[1]": {"tested_on": "107/402-T expression in HT-1376 tet-off clone", "test": "Doxycycline control of 107/402-T expression in HT-1376 tet-off clone (Western blot)", "format": "cell-based", "conditions": "Homo sapiens, 96 h, Western blot 4 days after exposure, read-out: half-maximal inhibitory concentration for 107/402-T expression", "source_text": "To prepare a human cell line in which expression of 107/402-T would be under control of doxycycline, HT-1376 human bladder carcinoma cells were sequentially transfected with three plasmid constructs: (a) pTET-OFF, which encodes the tetracycline-controlled transcriptional transactivator (tTA) under control of the CMV immediate-early promoter and the neomycin resistance gene under control of the SV40 early promoter, (b) pTRE.107/402-T, which encodes 107/402-T under control of the CMV minimal promoter and contains the tetracycline operon (binding site of tTA just upstream of the CMV minimal promoter), and (c) pCMVhygro, which encodes the hygromycin resistance gene under control of the CMV promoter. HT-1376 cells were first transfected with pTET-OFF, and neomycin resistant clones of stable transfectants were characterized by transiently transfecting clones with pTRE.luciferase in the presence or absence of doxycycline. Clones which yielded significant luciferase activity only in the absence of doxycycline (but no detectable luciferase activity in the presence of doxycycline) were then co-transfected with pTRE.107/402-T and pCMVhygro. Again, single cell clones of stable transfectants were screened for high basal levels of 107/402-T and complete turn-off of 107/402-T expression in the presence of doxycycline.\nSteady-state levels of 107/402-T are achieved by 3 days. […]"}, "human RB": {"molecular_target": "T1, human RB (Homo sapiens, UniProt P06400)", "T1 sequence (P06400 1-928)": "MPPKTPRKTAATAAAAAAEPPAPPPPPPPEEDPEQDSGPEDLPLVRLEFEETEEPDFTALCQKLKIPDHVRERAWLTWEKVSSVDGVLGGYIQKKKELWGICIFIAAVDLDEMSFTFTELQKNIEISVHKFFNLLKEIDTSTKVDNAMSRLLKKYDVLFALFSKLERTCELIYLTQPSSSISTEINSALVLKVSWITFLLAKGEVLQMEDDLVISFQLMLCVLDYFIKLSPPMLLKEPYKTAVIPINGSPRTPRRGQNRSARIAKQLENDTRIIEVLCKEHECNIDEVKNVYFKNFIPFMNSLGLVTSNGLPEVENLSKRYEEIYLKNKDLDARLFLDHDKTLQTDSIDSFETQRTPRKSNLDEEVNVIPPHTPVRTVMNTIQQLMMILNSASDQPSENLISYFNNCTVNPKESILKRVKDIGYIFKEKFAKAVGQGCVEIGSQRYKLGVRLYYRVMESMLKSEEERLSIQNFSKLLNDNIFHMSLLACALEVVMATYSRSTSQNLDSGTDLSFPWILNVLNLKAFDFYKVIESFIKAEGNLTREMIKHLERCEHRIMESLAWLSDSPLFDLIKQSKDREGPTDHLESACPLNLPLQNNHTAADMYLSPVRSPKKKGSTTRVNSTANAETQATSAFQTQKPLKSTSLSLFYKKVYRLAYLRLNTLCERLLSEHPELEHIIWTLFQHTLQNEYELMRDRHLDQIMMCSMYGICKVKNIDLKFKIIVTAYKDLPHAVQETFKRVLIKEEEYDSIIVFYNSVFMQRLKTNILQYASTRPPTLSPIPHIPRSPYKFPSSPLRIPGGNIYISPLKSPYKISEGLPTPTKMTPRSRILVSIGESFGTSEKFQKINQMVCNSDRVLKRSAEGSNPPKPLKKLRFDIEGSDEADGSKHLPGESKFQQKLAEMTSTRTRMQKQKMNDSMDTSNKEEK", "format": "binding"}, "T24 cell line": {"tested_on": "T24 cell line", "test": "Soft agar cloning of T24 clones expressing T antigens", "conditions": "T24 single cell clones expressing T antigen (SV-T clone A7, 402-T clone G1); ± se", "quoted_text": "Transformed cells were trypsinized and then passed through a 30-micron nylon filter (Tetko, Lancaster, N.Y.) to achieve a single cell suspension. The bottom layer of agar consisted of low glucose DMEM supplemented with 10% fetal calf serum and 0.6% Seaplaque agarose (FMC BioProducts, Rockland, Me.). The top layer contained serial dilutions of cells ranging between 10^3 and 10^6 in low-glucose DMEM supplemented with 10% fetal calf serum and 0.3% Seaplaque agarose."}, "p53": {"molecular_target": "p53 (Homo sapiens, UniProt P04637)", "sequence (P04637 whole entry)": "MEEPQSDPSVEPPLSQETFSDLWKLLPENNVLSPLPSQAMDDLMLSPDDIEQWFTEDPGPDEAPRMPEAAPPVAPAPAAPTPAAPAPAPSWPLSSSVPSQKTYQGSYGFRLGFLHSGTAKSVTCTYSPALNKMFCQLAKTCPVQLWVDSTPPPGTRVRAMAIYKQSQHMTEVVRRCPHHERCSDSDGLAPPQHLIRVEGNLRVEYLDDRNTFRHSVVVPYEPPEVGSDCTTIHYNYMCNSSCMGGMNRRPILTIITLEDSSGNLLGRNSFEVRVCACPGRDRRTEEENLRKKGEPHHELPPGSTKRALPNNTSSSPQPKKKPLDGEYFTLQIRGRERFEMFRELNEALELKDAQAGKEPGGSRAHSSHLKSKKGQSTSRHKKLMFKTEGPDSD", "format": "binding"}, "p107": {"molecular_target": "T2, p107 (Homo sapiens, UniProt P28749)", "T2 sequence (P28749 1-1068)": "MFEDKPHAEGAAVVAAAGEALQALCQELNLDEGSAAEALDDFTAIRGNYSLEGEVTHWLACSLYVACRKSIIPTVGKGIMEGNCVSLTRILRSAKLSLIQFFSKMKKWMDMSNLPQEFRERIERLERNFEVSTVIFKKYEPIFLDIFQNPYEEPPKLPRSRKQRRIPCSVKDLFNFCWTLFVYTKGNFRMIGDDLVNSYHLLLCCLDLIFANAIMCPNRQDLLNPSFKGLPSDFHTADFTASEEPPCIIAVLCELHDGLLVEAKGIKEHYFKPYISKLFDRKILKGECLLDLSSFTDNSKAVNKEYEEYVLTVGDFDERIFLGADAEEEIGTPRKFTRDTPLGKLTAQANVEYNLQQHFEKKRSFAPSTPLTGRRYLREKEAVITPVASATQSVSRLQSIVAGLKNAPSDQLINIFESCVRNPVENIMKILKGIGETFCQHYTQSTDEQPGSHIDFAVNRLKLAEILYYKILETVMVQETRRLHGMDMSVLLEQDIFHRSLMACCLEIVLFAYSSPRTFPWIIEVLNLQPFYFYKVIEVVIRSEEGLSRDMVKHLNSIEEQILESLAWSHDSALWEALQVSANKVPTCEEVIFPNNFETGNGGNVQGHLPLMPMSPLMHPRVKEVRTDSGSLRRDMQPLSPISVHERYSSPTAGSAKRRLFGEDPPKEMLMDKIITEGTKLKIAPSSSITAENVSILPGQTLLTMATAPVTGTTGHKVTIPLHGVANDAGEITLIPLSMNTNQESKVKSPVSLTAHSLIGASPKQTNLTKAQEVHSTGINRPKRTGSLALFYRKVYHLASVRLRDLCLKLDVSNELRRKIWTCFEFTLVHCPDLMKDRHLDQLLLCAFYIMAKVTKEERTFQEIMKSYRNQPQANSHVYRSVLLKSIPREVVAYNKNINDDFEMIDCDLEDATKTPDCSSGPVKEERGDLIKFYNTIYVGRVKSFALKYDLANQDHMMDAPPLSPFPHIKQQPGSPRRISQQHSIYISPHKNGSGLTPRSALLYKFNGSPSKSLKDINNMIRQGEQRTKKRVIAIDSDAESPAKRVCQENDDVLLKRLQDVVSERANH", "format": "binding"}}}
{"molecule": "C[C@H]1c2cccc(O)c2C(=O)C2=C(O)[C@]3(O)C(=O)C(C(N)=O)=C(O)[C@@H](N(C)C)[C@@H]3[C@@H](O)[C@@H]21", "note": "[doxycycline]", "values": [{"measurement": "IC50", "setting": "[1]", "value": "~0.01", "unit": "ng/mL"}]}
{"molecule": "B1", "values": [{"measurement": "Observed signal compared to T, binding to RB", "setting": "human RB", "value": 100, "unit": "%"}, {"measurement": "soft agar cloning efficiency", "setting": "T24 cell line", "value": "0.10%±0.02%"}, {"measurement": "Observed signal compared to T, binding to p53", "setting": "p53", "value": 100, "unit": "%"}, {"measurement": "Observed signal compared to T, binding to p107", "setting": "p107", "value": 100, "unit": "%"}]}
